In publication doi:10.64898/2025.12.10.692585:

Molecular target: Porcine RNA polymerase II, purified (porcine) (UniProt I3LGP4)
Assay: mass photometry

stoichiometry N: 2
Substance: Porcine RNA polymerase II, purified (from UniProt I3LGP4 127-1300; P60899 1-125; A0A4X1VYD0 1-67; A0A8D0JYF1 1-58) (complex)
